Patent US20030148957A1 (PROCTER AND GAMBLE, published 2003)
Ends that are not written are not given here.

Molecular target: T1, CRF2R
T1 sequence (Q13324 whole entry, species assumed, looked up): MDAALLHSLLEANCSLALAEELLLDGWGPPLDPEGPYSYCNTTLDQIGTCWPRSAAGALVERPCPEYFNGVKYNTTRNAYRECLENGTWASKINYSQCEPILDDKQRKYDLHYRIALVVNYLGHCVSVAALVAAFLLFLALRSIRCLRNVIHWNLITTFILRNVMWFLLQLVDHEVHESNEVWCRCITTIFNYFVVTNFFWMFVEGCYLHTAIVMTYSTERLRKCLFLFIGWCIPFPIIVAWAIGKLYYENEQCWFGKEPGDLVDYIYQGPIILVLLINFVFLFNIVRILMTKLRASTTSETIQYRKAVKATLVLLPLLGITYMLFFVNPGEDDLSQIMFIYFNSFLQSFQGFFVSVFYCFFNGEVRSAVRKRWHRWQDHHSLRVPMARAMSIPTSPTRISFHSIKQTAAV
Test: cell-based or functional assay

In the case of IVLSLDVPIGLLQELLEMARAEQLAQQAHSNRKLMEII-NH2 [SEQ ID NO 1], the “CRF2R (Emax %)” value is reported as 100%.
